Experimental data taken from patent US20120208291A1.
pKd: −log10 of the molar value.

Target: acceptor complex of syntaxin linked to SNAP-25 (UniProt O16000)
Assay: KISMI single-molecule imaging

Chain of UniProt O16000 (O16000 1-265, one chain of several): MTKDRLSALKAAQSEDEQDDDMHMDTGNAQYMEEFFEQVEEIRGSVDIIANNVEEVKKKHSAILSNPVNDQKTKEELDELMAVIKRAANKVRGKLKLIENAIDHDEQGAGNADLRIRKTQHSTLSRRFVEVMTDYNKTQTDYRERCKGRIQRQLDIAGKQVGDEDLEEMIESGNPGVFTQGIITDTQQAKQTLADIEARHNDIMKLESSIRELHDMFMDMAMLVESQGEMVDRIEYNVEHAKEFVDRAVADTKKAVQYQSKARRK

Substance: synaptobrevin (from UniProt O02495 1-86)
- pKd: 5.77
